The values below come from publication PMC10681800, “Structural and functional investigation of GajB protein in Gabija anti-phage defense” (Nucleic Acids Research, 2023).

The chains are these.
B1: GajB of the Gabija anti-phage defense system of Bacillus cereus VD045, purified on its own, (His)6-MBP tag cleaved by TEV protease (natural protein)
chain: MSREQIIKDGGNILVTAGAGSGKTTILVSKIEADLKENKTHYSIAAVTFTNKAAKEIEGRLGYSSRGNFIGTNDGFVESEIIRPFIKDAFGNDYPDNFTAEYFDNQFASYDKGLQVLKYQNILGTYSNPKKNFKFQLALDILKKSLVARQYIFSKYFKIFIDEYQDSDKDMHNLFMYLKDQLKIKLFIVGDPKQSIYIWRGAEPENFNGLIENSTDFNKYHLTSNFRCCQDIQNYSNLFNEETRSLIKEKNEVQNVISIADDMPISDILLKLTEEKQVLNIEAELVILVRRRNQAIEIMKELNEEGFNFIFIPQTPLDRATPNATLLKEVIKYVKNDRYSIYDLAAEIVGNLSSREIKEIQKIINELLVPNINQVLINQVLINLFAKLEITLDTREITAFTEVMMTNEFDIAFDTNEYLHKIFTVHSAKGLEFNQVIITASDYNVHYNRDTNEHYVATTRAKDKLIVIMDNKKYSDYIETLMKELKIKNIIKSI
notes: GajB, Bacillus cereus VD045, synthetic gene in pET28a with (His)6-MBP and a TEV site; 57.1 kDa as printed; the subdomains of the crystal structure span residues 1-494; the shorter of the two GajB forms that the discussion tells of (the long form has five more N-terminal residues); Monomer by SEC-MALS and analytical SEC; also called individually purified GajB; separately purified GajB; source: E. …
B2: 3'-tailed dsDNA (dsDNA)
DNA 1: TCGGTACGACCTGCGAGCACTGCTT
DNA 2: AAGCAGTGCTCGCAGGTCGTACCGATTTTTTTTTTTTTTT
B3: GajA of the Gabija anti-phage defense system of Bacillus cereus VD045, with a C-terminal (His)6 tag, purified on its own (enzyme, UniProt J8H9C1 1-578, looked up)
chain: MKFSNITIKNFRNFEKVNINLDNKNVIFGMNDIGKTNFLYALRFLLDKEIRKFGFNKSDYHKHDTSKKIEIILTLDLSNYEKDEDTKKLISVVKGARTSANADVFYIALESKYDDKELYGNIILKWGSELDNLIDIPGRGNINALDNVFKVIYINPLVDLDKLFAQNKKYIFEESQGNESDEGILNNIKSLTDQVNQQIGEMTIIKGFQQEITSEYRSLKKEEVSIELKSEMAIKGFFSDIIPYIKKDGDSNYYPTSGDGRRKMLSYSIYNYLAKKKYEDKIVIYLIEEPEISLHRSMQIALSKQLFEQSTYKYFFLSTHSPELLYEMDNTRLIRVHSTEKVVCSSHMYNVEEAYGSVKKKLNKALSSALFAERVLLIEGPSEKILFEKVLDEVEPEYELNGGFLLEVGGTYFNHYVCTLNDLGITHIIKTDNDLKSKKGKKGVYELLGLNRCLNLLGRENLDEITIDIPEDIKGKKKKERLNERKKEIFKQYKNEVGEFLGERIYLSEIDLENDLYSAIGESMKRIFENEDPVHYLQKSKLFNMVELVNNLSTKDCFDVFEHEKFACLKELVGSDRG
notes: GajA, Bacillus cereus VD045, synthetic gene in pET21a; 67.0 kDa as printed; Tetramer by SEC-MALS and analytical SEC; also called individually purified GajA; separately purified GajA; source: E. coli BL21(DE3), purified (HisTrap HP, SEC Superdex 200)

Data set [1] concerns the target B3. Description: SEC; analytical SEC, Superdex 200 10/300 GL; 300 mM NaCl, 2 mM DTT, 5% glycerol, 20 mM HEPES pH 7.5; samples 20 μM each, incubated at 4°C for 1 h before loading; also GajA pre-incubated with increasing amounts of GajB. The settings on record: both partners purified. Background: In gel filtration, larger molecules generally elute earlier.
The target of data set [2] is B3. The experiment in a line: ITC; 4°C; 20 μM GajB in the cell titrated with 20 injections of 2 μl of 200 μM GajA; 300 mM NaCl, 1 mM TCEP, 10% glycerol, 20 mM HEPES pH 7.5; triplicate. To be noted: both partners purified. (In general: In ITC the heat of successive injections is recorded.)
Data set [3] addresses B3. The experiment in a line: SEC-MALS; GajA pre-incubated with an excess of GajB (molar ratio 4:8); Superdex 200 Increase 10/300 GL, 300 mM NaCl, 2 mM DTT, 5% glycerol, 20 mM HEPES pH 7.5, 25 °C. To be noted: both partners purified.
Another data set has as its target T1, GajB (Bacillus cereus VD045, UniProt J8HQ06 1-494).
T1 sequence: B1 chain
Description: EMSA; 10 uM protein, 5 uM DNA, 5 mM Mg2+, no ATP; EMSA: 5 mM MgCl2, 1 mM DTT, 0.75 uM BSA, 20 mM Tris-HCl pH 7.5, 25 C, 90 min; 2% agarose gel, ethidium bromide. The settings on record: protein: recombinant; tags: N-terminal His6-MBP removed with TEV protease; label: fluorescein on the 25-mer in helicase assay; 25 bp duplex, 3' overhang 15 nt (T15) on strand 2. For orientation: A gel shift assay detects complexes by their altered migration in electrophoresis.

A further data set addresses T2, UvrD (Escherichia coli DH5alpha, UniProt P03018 1-720).
T2 sequence: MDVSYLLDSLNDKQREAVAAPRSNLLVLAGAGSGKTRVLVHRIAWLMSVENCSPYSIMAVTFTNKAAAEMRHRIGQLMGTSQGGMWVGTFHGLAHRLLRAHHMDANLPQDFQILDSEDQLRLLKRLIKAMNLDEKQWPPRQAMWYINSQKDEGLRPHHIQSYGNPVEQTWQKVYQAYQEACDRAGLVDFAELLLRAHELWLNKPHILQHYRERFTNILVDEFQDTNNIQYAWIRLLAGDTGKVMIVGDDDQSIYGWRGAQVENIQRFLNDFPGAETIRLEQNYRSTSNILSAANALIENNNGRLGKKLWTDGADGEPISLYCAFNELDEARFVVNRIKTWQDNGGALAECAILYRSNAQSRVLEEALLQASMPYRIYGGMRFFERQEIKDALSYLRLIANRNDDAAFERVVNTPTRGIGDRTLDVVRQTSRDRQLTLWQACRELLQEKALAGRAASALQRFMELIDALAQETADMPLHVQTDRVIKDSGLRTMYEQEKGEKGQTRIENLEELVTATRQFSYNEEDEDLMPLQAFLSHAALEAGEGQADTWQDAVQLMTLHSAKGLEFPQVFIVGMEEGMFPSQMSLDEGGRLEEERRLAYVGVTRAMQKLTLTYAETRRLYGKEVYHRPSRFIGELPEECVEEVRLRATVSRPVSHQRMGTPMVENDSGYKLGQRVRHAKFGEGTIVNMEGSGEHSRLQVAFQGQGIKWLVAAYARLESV
The data set is described as above. To be noted: protein: recombinant; tags: N-terminal His6-MBP removed with TEV protease (as for GajB); label: fluorescein on the 25-mer in helicase assay; 25 bp duplex, 3' overhang 15 nt (T15) on strand 2.

The target in the next data set is T3, GajA;GajB (Bacillus cereus VD045;Bacillus cereus …, UniProt J8H9C1;J8HQ06 1-578;1-494, |).
T3 sequence 1: B3 chain
T3 sequence 2: B1 chain
The data set is described as above. To be noted: protein: recombinant;recombinant; chain copies: 4;4; label: fluorescein on the 25-mer in helicase assay; 25 bp duplex, 3' overhang 15 nt (T15) on strand 2.

Data set [4] concerns the molecule itself. Description: SEC-MALS + SEC; each protein alone; Superdex 200 Increase 10/300 GL with miniDAWN/Optilab, 300 mM NaCl, 2 mM DTT, 5% glycerol, 20 mM HEPES pH 7.5, 20 μM, 25 °C; analytical SEC in the same buffer.
Data set [5] concerns the target B1. The experiment in a line: ITC; 4°C; 20 μM GajB in the cell titrated with 20 injections of 2 μl of 200 μM GajA; 300 mM NaCl, 1 mM TCEP, 10% glycerol, 20 mM HEPES pH 7.5; triplicate. To be noted: both partners purified.
For data set [6], the target named is T4, GajB of the Gabija anti-phage defense system of Bacillus cereus VD045, purified on its own, (His)6-MBP tag … (Bacillus cereus VD045, UniProt J8HQ06 1-494).
T4 chain: B1 chain
The experiment in a line: ITC.

“And” between values parts separate entries of the source, which are not always exact repeats. Equal values may be shown once.

As a reminder, the stoichiometry N is the number of molecules, sites or subunits per partner or assembly. As a reminder, the Kd is a measure of binding affinity in units of concentration. Low values mean a tighter complex, high ones a looser complex. In the case of B1, the entries for the “stoichiometry N” value in data set [1] and in data set [3] were 4 GajB monomers per GajA tetramer and 4 GajB monomers per GajA tetramer (4:4), respectively. Also, the Kd in data set [2] is approximately 46.4 nM.

Turning to B2, the binding result is listed as “no binding” with GajB, “binds” with UvrD and “no binding” with GajA;GajB.

In the case of B3, the entries for the “stoichiometry N” value in [4] and in data set [5] were 4 and approximately 1, respectively. Also, the Kd in data set [6] was 54.3 nM and 36.9 nM.
